From the supplement of paper PMC9112550, “Optimization of the antimicrobial peptide Bac7 by deep mutational scanning” (BMC Biology, 2022)

test system: Escherichia coli TOP10; assay: shrunken log2 fold change of peptide-encoding DNA abundance (4.5 h post-induction vs induction); higher = less antimicrobial activity (less host growth inhibition); conditions: time post-induction: 4.5 h; library: site-saturation at positions 5, 18, 19, 20
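Further: peptides expressed intracellularly from a pBAD plasmid library in pooled LB shake-flask culture, induced with 0.3% L-arabinose, DNA abundance read by NGS, three biological replicates, DESeq2 with apeglm shrinkage.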

Row | Sequence | shrunken log2 fold change
1 | RRIRDRPPRLPRPRPRPYYYPRP | -1.11
2 | RRIRSRPPRLPRPRPRPKRWPRP | 0.71
3 | RRIRWRPPRLPRPRPRPCYWPRP | -0.201
4 | RRIRCRPPRLPRPRPRPRACPRP | 0.24
5 | RRIRARPPRLPRPRPRPTNSPRP | 0.165
6 | RRIRLRPPRLPRPRPRPQAQPRP | 0.0698
7 | RRIRKRPPRLPRPRPRPFMCPRP | 0.0653
8 | RRIRSRPPRLPRPRPRPMEPPRP | 0.0473
9 | RRIRIRPPRLPRPRPRPNAIPRP | -0.204
10 | RRIRYRPPRLPRPRPRPIWPPRP | -0.00922
11 | RRIRNRPPRLPRPRPRPWPKPRP | 0.0323
12 | RRIRWRPPRLPRPRPRPECWPRP | 1.29
13 | RRIRQRPPRLPRPRPRPTLCPRP | 0.00185
14 | RRIRDRPPRLPRPRPRPNEIPRP | -0.0208
15 | RRIRMRPPRLPRPRPRPWLKPRP | -0.11
16 | RRIRLRPPRLPRPRPRPVMYPRP | -0.302
17 | RRIRDRPPRLPRPRPRPNGLPRP | -0.0178
18 | RRIRKRPPRLPRPRPRPCITPRP | -0.146
19 | RRIRERPPRLPRPRPRPVRCPRP | 0.162
20 | RRIRERPPRLPRPRPRPFRNPRP | -0.105
21 | RRIRKRPPRLPRPRPRPVTIPRP | 0.0361
22 | RRIRVRPPRLPRPRPRPKCGPRP | 0.0731
23 | RRIRPRPPRLPRPRPRPKNNPRP | -0.475
24 | RRIRTRPPRLPRPRPRPADRPRP | -0.108
25 | RRIRNRPPRLPRPRPRPNAVPRP | 0.266

Row | Sequence | shrunken log2 fold change
26 | RRIRSRPPRLPRPRPRPEMMPRP | 0.681
27 | RRIRPRPPRLPRPRPRPVDTPRP | -0.592
28 | RRIRIRPPRLPRPRPRPPRNPRP | 0.217
29 | RRIRPRPPRLPRPRPRPNIGPRP | 0.0125
30 | RRIRFRPPRLPRPRPRPMNWPRP | -0.143
31 | RRIRDRPPRLPRPRPRPDQDPRP | 0.399
32 | RRIRTRPPRLPRPRPRPFEAPRP | 0.0368
33 | RRIRPRPPRLPRPRPRPICPPRP | -0.17
34 | RRIRARPPRLPRPRPRPLFDPRP | 0.28
35 | RRIRFRPPRLPRPRPRPQFPPRP | -0.16
36 | RRIRTRPPRLPRPRPRPDLGPRP | -0.117
37 | RRIRRRPPRLPRPRPRPSYTPRP | -0.227
38 | RRIRNRPPRLPRPRPRPDELPRP | -0.134
39 | RRIRQRPPRLPRPRPRPIAAPRP | 0.269
40 | RRIRIRPPRLPRPRPRPNAHPRP | -0.0997
41 | RRIRWRPPRLPRPRPRPERRPRP | 0.327
42 | RRIRPRPPRLPRPRPRPMNMPRP | -0.668
43 | RRIRCRPPRLPRPRPRPRQVPRP | 0.184
44 | RRIRERPPRLPRPRPRPVRFPRP | 0.431
45 | RRIRCRPPRLPRPRPRPKYYPRP | 0.167
46 | RRIRDRPPRLPRPRPRPILGPRP | -0.0116
47 | RRIRTRPPRLPRPRPRPWRHPRP | -0.0184
48 | RRIRPRPPRLPRPRPRPWPYPRP | 0.0948
49 | RRIRYRPPRLPRPRPRPATQPRP | -0.163
50 | RRIRMRPPRLPRPRPRPSHMPRP | -0.146

Row | Sequence | shrunken log2 fold change
51 | RRIRARPPRLPRPRPRPHCDPRP | 0.214
52 | RRIRDRPPRLPRPRPRPRMRPRP | 0.984
53 | RRIRNRPPRLPRPRPRPGWGPRP | 0.492
54 | RRIRIRPPRLPRPRPRPFFCPRP | -0.106
55 | RRIRVRPPRLPRPRPRPWEEPRP | -0.317
56 | RRIRVRPPRLPRPRPRPSFNPRP | -0.411
57 | RRIRYRPPRLPRPRPRPERQPRP | -0.01
58 | RRIRVRPPRLPRPRPRPPSMPRP | -0.0312
59 | RRIRVRPPRLPRPRPRPFPAPRP | -0.121
60 | RRIRGRPPRLPRPRPRPRWWPRP | 0.667
61 | RRIRWRPPRLPRPRPRPRACPRP | 0.468
62 | RRIRNRPPRLPRPRPRPDFVPRP | -0.045
63 | RRIRPRPPRLPRPRPRPQDYPRP | -0.0245
64 | RRIRSRPPRLPRPRPRPWMYPRP | -0.0974
65 | RRIRSRPPRLPRPRPRPSHCPRP | 0.079
66 | RRIRTRPPRLPRPRPRPSCDPRP | -0.347
67 | RRIRGRPPRLPRPRPRPHDYPRP | 0.0282
68 | RRIRERPPRLPRPRPRPMWWPRP | -0.298
69 | RRIRYRPPRLPRPRPRPNHWPRP | -0.4
70 | RRIRERPPRLPRPRPRPAFYPRP | -0.32
71 | RRIRERPPRLPRPRPRPLDDPRP | -0.234
72 | RRIRERPPRLPRPRPRPERCPRP | 0.125
73 | RRIRRRPPRLPRPRPRPDIKPRP | -0.374
74 | RRIRSRPPRLPRPRPRPAECPRP | 0.0306
75 | RRIRSRPPRLPRPRPRPYYFPRP | -0.664

Row | Sequence | shrunken log2 fold change
76 | RRIRGRPPRLPRPRPRPDQCPRP | 0.196
77 | RRIRSRPPRLPRPRPRPAFIPRP | -0.0885
78 | RRIRYRPPRLPRPRPRPEGYPRP | -0.01
79 | RRIRCRPPRLPRPRPRPWITPRP | -1.47
80 | RRIRFRPPRLPRPRPRPAYEPRP | 0.0737
81 | RRIRCRPPRLPRPRPRPIMQPRP | -0.193
82 | RRIRGRPPRLPRPRPRPFFKPRP | 0.186
83 | RRIRQRPPRLPRPRPRPPEIPRP | -0.0671
84 | RRIRKRPPRLPRPRPRPPHGPRP | 0.634
85 | RRIRPRPPRLPRPRPRPEIFPRP | 0.137
86 | RRIRSRPPRLPRPRPRPVSPPRP | 0.155
87 | RRIRHRPPRLPRPRPRPRMRPRP | 0.39
88 | RRIRKRPPRLPRPRPRPYAKPRP | -0.0729
89 | RRIRGRPPRLPRPRPRPACVPRP | 0.81
90 | RRIRCRPPRLPRPRPRPESLPRP | -0.11
91 | RRIRHRPPRLPRPRPRPAMWPRP | 0.00652
92 | RRIRERPPRLPRPRPRPDCSPRP | -0.148
93 | RRIRDRPPRLPRPRPRPKNRPRP | 0.0678
94 | RRIRTRPPRLPRPRPRPTWIPRP | -0.0425
95 | RRIRYRPPRLPRPRPRPEWMPRP | -0.758
96 | RRIRKRPPRLPRPRPRPGTLPRP | 0.0624
97 | RRIRFRPPRLPRPRPRPLCTPRP | -0.137
98 | RRIRGRPPRLPRPRPRPEWTPRP | 1.27
99 | RRIRWRPPRLPRPRPRPQRCPRP | 0.103
100 | RRIRVRPPRLPRPRPRPSGNPRP | -0.225

Row | Sequence | shrunken log2 fold change
101 | RRIRFRPPRLPRPRPRPRQEPRP | 0.0178
102 | RRIRVRPPRLPRPRPRPSADPRP | -0.397
103 | RRIRVRPPRLPRPRPRPPQFPRP | 0.146
104 | RRIRPRPPRLPRPRPRPQVLPRP | -0.208
105 | RRIRPRPPRLPRPRPRPKFEPRP | 0.319
106 | RRIRRRPPRLPRPRPRPMSGPRP | 0.0609
107 | RRIRFRPPRLPRPRPRPHYDPRP | -0.397
108 | RRIRARPPRLPRPRPRPFFSPRP | -0.0124
109 | RRIRARPPRLPRPRPRPDWTPRP | 0.0425
110 | RRIRGRPPRLPRPRPRPIWAPRP | 0.267
111 | RRIRTRPPRLPRPRPRPHHKPRP | -0.614
112 | RRIRPRPPRLPRPRPRPNYQPRP | -0.293
113 | RRIRFRPPRLPRPRPRPSVNPRP | -0.388
114 | RRIRRRPPRLPRPRPRPAMLPRP | 1.02
115 | RRIRGRPPRLPRPRPRPFDDPRP | 0.0195
116 | RRIRFRPPRLPRPRPRPCVSPRP | -0.0323
117 | RRIRDRPPRLPRPRPRPNNTPRP | -0.747
118 | RRIRDRPPRLPRPRPRPDTNPRP | -0.0518
119 | RRIRTRPPRLPRPRPRPPRRPRP | 0.386
120 | RRIRLRPPRLPRPRPRPNPAPRP | -0.0363
121 | RRIRYRPPRLPRPRPRPVYCPRP | -0.416
122 | RRIRHRPPRLPRPRPRPHGNPRP | -1.11
123 | RRIRRRPPRLPRPRPRPEEQPRP | 0.231
124 | RRIRQRPPRLPRPRPRPCIHPRP | -0.734
125 | RRIRMRPPRLPRPRPRPLCFPRP | 0.562

Row | Sequence | shrunken log2 fold change
126 | RRIRWRPPRLPRPRPRPQMFPRP | 0.197
127 | RRIRTRPPRLPRPRPRPWWMPRP | -0.133
128 | RRIRQRPPRLPRPRPRPREFPRP | 0.0416
129 | RRIRLRPPRLPRPRPRPQQCPRP | 0.146
130 | RRIRSRPPRLPRPRPRPCFMPRP | 0.914
131 | RRIRERPPRLPRPRPRPFYYPRP | -0.618
132 | RRIRPRPPRLPRPRPRPMDTPRP | -0.276
133 | RRIRYRPPRLPRPRPRPNFDPRP | -0.565
134 | RRIRPRPPRLPRPRPRPKLRPRP | 0.204
135 | RRIRVRPPRLPRPRPRPMCQPRP | -0.0733
136 | RRIRARPPRLPRPRPRPHWDPRP | 0.116
137 | RRIRERPPRLPRPRPRPWEWPRP | 0.0992
138 | RRIRLRPPRLPRPRPRPTCLPRP | -0.255
139 | RRIRYRPPRLPRPRPRPLHAPRP | 0.000596
140 | RRIRDRPPRLPRPRPRPYRTPRP | -0.0206
141 | RRIRKRPPRLPRPRPRPTVLPRP | 0.0143
142 | RRIRCRPPRLPRPRPRPVYDPRP | -0.683
143 | RRIRIRPPRLPRPRPRPIMVPRP | -0.412
144 | RRIRPRPPRLPRPRPRPQCCPRP | 0.0723
145 | RRIRDRPPRLPRPRPRPQKQPRP | 0.086
146 | RRIRWRPPRLPRPRPRPAKAPRP | 0.747
147 | RRIRPRPPRLPRPRPRPWSVPRP | -0.101
148 | RRIRFRPPRLPRPRPRPCTDPRP | -0.183
149 | RRIRVRPPRLPRPRPRPHRMPRP | -0.457
150 | RRIRRRPPRLPRPRPRPVVKPRP | -0.0155
